Measured values as given in article PMC2845979 (Nature, 2009).

Biological target: the molecule itself
Assay: crystal structure

B1: minimal functional chicken ASIC1 construct (cASIC1mfc) (domain or fragment, UniProt Q1XA76 2-466, looked up)
chain: MDLKVDEEEVDSGQPVSIQAFASSSTLHGISHIFSYERLSLKRVVWALCFMGSLALLALVCTNRIQYYFLYPHVTKLDEVAATRLTFPAVTFCNLNEFRFSRVTKNDLYHAGELLALLNNRYEIPDTQTADEKQLEILQDKANFRNFKPKPFNMLEFYDRAGHDIREMLLSCFFRGEQCSPEDFKVVFTRYGKCYTFNAGQDGKPRLITMKGGTGNGLEIMLDIQQDEYLPVWGETDETSFEAGIKVQIHSQDEPPLIDQLGFGVAPGFQTFVSCQEQRLIYLPPPWGDCKATTGDSEFYDTYSITACRIDCETRYLVENCNCRMVHMPGDAPYCTPEQYKECADPALDFLVEKDNEYCVCEMPCNVTRYGKELSMVKIPSKASAKYLAKKYNKSEQYIGENILVLDIFFEALNYETIEQKKAYEVAGLLGDIGGQMGLFIGASILTVLELFDYAYEVIKHRLCR
In the case of B1, the “stoichiometry N” value is reported as 3.
